Results taken from the supplement of paper PMC9112550, “Optimization of the antimicrobial peptide Bac7 by deep mutational scanning” (BMC Biology, 2022).

These sequences were tested on Escherichia coli TOP10 (assay: shrunken log2 fold change of peptide-encoding DNA abundance (4.5 h post-induction vs induction); higher = less antimicrobial activity (less host growth inhibition)). Settings: time post-induction: 4.5 h; library: site-saturation at positions 5, 18, 19, 20.
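Further: peptides expressed intracellularly from a pBAD plasmid library in pooled LB shake-flask culture, induced with 0.3% L-arabinose, DNA abundance read by NGS, three biological replicates, DESeq2 with apeglm shrinkage.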

Point of comparison: RRIRHRPPRLPRPRPRPFAQPRP, “shrunken log2 fold change” value -0.163. Against it:
- RRIRGRPPRLPRPRPRPRFTPRP — higher, 0.582
- RRIRNRPPRLPRPRPRPLKQPRP — higher, 0.114
- RRIRPRPPRLPRPRPRPSPPPRP — higher, 0.0408
- RRIRLRPPRLPRPRPRPFDFPRP — within 0.2 log units, -0.281
- RRIRERPPRLPRPRPRPAARPRP — higher, 0.226
- RRIRWRPPRLPRPRPRPCRDPRP — within 0.2 log units, -0.0737
- RRIRTRPPRLPRPRPRPLYDPRP — lower, -0.824
- RRIRLRPPRLPRPRPRPDFMPRP — within 0.2 log units, -0.277
- RRIRMRPPRLPRPRPRPHFSPRP — within 0.2 log units, -0.194
- RRIRTRPPRLPRPRPRPLTKPRP — higher, 0.0652
- RRIRARPPRLPRPRPRPGKFPRP — within 0.2 log units, -0.167
- RRIRFRPPRLPRPRPRPCMFPRP — lower, -0.556
- RRIRARPPRLPRPRPRPDWGPRP — higher, 0.272
- RRIRKRPPRLPRPRPRPNDLPRP — within 0.2 log units, -0.054
- RRIRPRPPRLPRPRPRPCQTPRP — within 0.2 log units, 0.0185
- RRIRIRPPRLPRPRPRPNYKPRP — lower, -0.911
- RRIRMRPPRLPRPRPRPKRRPRP — higher, 1.02
- RRIRIRPPRLPRPRPRPCYKPRP — within 0.2 log units, -0.049
- RRIRLRPPRLPRPRPRPRWFPRP — higher, 0.602
- RRIRHRPPRLPRPRPRPWMHPRP — within 0.2 log units, 0.0155
- RRIRARPPRLPRPRPRPKMTPRP — higher, 0.365
- RRIRSRPPRLPRPRPRPNQDPRP — within 0.2 log units, -0.3
- RRIRLRPPRLPRPRPRPEPWPRP — higher, 0.222
- RRIRERPPRLPRPRPRPLWGPRP — higher, 0.0859
- RRIRVRPPRLPRPRPRPWNCPRP — within 0.2 log units, 0.0131
- RRIRSRPPRLPRPRPRPLFYPRP — lower, -0.413
- RRIRCRPPRLPRPRPRPYLFPRP — lower, -1.19
- RRIRPRPPRLPRPRPRPMADPRP — higher, 0.131
- RRIRLRPPRLPRPRPRPRFQPRP — higher, 0.0867
- RRIRIRPPRLPRPRPRPSTDPRP — within 0.2 log units, -0.247
- RRIRMRPPRLPRPRPRPWHKPRP — within 0.2 log units, -0.00776
- RRIRFRPPRLPRPRPRPACSPRP — within 0.2 log units, 0.0139
- RRIRYRPPRLPRPRPRPQVFPRP — within 0.2 log units, 0.0195
- RRIRTRPPRLPRPRPRPVLWPRP — higher, 0.117
- RRIRWRPPRLPRPRPRPITSPRP — within 0.2 log units, -0.122
- RRIRFRPPRLPRPRPRPFSIPRP — lower, -0.401
- RRIRSRPPRLPRPRPRPQTRPRP — higher, 0.181
- RRIRDRPPRLPRPRPRPGDNPRP — higher, 2.29
- RRIRHRPPRLPRPRPRPVDEPRP — higher, 0.184
- RRIRPRPPRLPRPRPRPLYVPRP — lower, -0.433
- RRIRQRPPRLPRPRPRPQADPRP — higher, 0.0769
- RRIRKRPPRLPRPRPRPCQKPRP — within 0.2 log units, -0.0405
- RRIRQRPPRLPRPRPRPTVYPRP — higher, 0.079
- RRIRDRPPRLPRPRPRPDCLPRP — higher, 0.779
- RRIRKRPPRLPRPRPRPDVTPRP — higher, 1.47
- RRIRRRPPRLPRPRPRPWSQPRP — within 0.2 log units, -0.132
- RRIRNRPPRLPRPRPRPYDDPRP — within 0.2 log units, 0.00769
- RRIRFRPPRLPRPRPRPRAKPRP — higher, 0.189
- RRIRQRPPRLPRPRPRPIHFPRP — within 0.2 log units, -0.236
- RRIRMRPPRLPRPRPRPHIGPRP — within 0.2 log units, -0.00118
- RRIRYRPPRLPRPRPRPIYVPRP — lower, -1.88
- RRIRRRPPRLPRPRPRPYAYPRP — within 0.2 log units, -0.189
- RRIRPRPPRLPRPRPRPVGTPRP — higher, 0.1
- RRIRYRPPRLPRPRPRPTSMPRP — lower, -1
- RRIRFRPPRLPRPRPRPQQEPRP — within 0.2 log units, -0.0424
- RRIRIRPPRLPRPRPRPPMHPRP — within 0.2 log units, -0.0688
- RRIRVRPPRLPRPRPRPKLDPRP — higher, 0.116
- RRIRSRPPRLPRPRPRPQRWPRP — higher, 0.319
- RRIRFRPPRLPRPRPRPWGKPRP — within 0.2 log units, -0.221
- RRIRSRPPRLPRPRPRPVNKPRP — lower, -0.404
- RRIRMRPPRLPRPRPRPTWQPRP — higher, 0.288
- RRIRERPPRLPRPRPRPDDCPRP — within 0.2 log units, -0.0573
- RRIRRRPPRLPRPRPRPHQQPRP — within 0.2 log units, -0.0551
- RRIRPRPPRLPRPRPRPVVWPRP — higher, 0.535
- RRIRHRPPRLPRPRPRPFYGPRP — within 0.2 log units, -0.0135
- RRIRRRPPRLPRPRPRPESYPRP — higher, 0.0503
- RRIRDRPPRLPRPRPRPAVQPRP — within 0.2 log units, -0.00697
- RRIRNRPPRLPRPRPRPNFAPRP — higher, 0.0544
- RRIRMRPPRLPRPRPRPMLWPRP — higher, 0.19
- RRIRFRPPRLPRPRPRPNQTPRP — higher, 0.275
- RRIRARPPRLPRPRPRPWSCPRP — within 0.2 log units, -0.045
- RRIRPRPPRLPRPRPRPRLDPRP — higher, 0.0787
- RRIRIRPPRLPRPRPRPMENPRP — within 0.2 log units, 0.0119
- RRIRRRPPRLPRPRPRPDYIPRP — within 0.2 log units, -0.339
